PMC9482650, “Quantitative fragmentomics allow affinity mapping of interactomes” (Nature Communications, 2022)

T1: SHANK1, Q9Y566
T1 sequence (Q9Y566 658-767, limits assumed, looked up): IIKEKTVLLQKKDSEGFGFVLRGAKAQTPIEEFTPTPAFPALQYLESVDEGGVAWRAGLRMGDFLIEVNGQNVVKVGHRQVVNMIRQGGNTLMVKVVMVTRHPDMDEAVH

T2: RADIL, Q96JH8
T2 sequence (Q96JH8 971-1071, limits assumed, looked up): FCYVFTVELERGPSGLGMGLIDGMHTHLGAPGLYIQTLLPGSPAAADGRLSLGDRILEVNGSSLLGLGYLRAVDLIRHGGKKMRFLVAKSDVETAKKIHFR

T3: APBA2_2, Q99767
T3 sequence (Q99767 654-744, limits assumed, looked up): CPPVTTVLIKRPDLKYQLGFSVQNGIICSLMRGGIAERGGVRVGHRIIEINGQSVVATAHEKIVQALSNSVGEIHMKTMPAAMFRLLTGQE

T4: PDZD2_2, O15018
T4 sequence (O15018 329-429, limits assumed, looked up): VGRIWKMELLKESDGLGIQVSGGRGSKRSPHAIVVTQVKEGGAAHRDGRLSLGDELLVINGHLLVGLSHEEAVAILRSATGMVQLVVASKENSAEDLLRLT

T5: SNTB1, Q13884
T5 sequence (Q13884 107-205, limits assumed, looked up): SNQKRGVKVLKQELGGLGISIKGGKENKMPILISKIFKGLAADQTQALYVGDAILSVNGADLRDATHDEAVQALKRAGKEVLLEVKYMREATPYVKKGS

T6: ARHGAP21, Q5T5U3
T6 sequence (Q5T5U3 45-169, limits assumed, looked up): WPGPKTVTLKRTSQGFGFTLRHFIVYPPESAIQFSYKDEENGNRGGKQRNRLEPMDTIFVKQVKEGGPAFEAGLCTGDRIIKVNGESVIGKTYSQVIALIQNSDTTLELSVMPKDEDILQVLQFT


Columns and labels:
Assay in all cases: holdup assay
Design in all cases: key: below the threshold = too weak to quantify, mostly under pKd 3.1 to 4
Details in all cases: plain residues with an end cap or a label only (N-terminal biotin on a linker: ado-ado)
[1] = target: PDLIM1, O00151
[2] = target: T1, SHANK1, Q9Y566
[3] = target: T2, RADIL, Q96JH8
[4] = target: Inadl_10, Q8NI35
[5] = target: DLG4_3, P78352
[6] = target: GRASP, Q7Z6J2
[7] = target: T3, APBA2_2, Q99767
[8] = target: HTRA1, Q92743
[9] = target: DLG1_2, Q12959
[10] = target: LNX1_2, Q8TBB1
[11] = target: IL16_4, Q14005
[12] = target: LNX1_3, Q8TBB1
[13] = target: DLG2_3, Q15700
[14] = target: MAST1, Q9Y2H9
[15] = target: LAP2, Q96RT1
[16] = target: DLG4_2, P78352
[17] = target: GIPC2, Q8TF65
[18] = target: GRID2IP_2, A4D2P6
[19] = target: T4, PDZD2_2, O15018
[20] = target: DLG4_1, P78352
[21] = target: T5, SNTB1, Q13884
[22] = target: MAGI3_2, Q5TCQ9
[23] = target: FRMPD4, Q14CM0
[24] = target: IL16_1, Q14005
[25] = target: Inadl_6, Q8NI35
[26] = target: GORASP2, Q9H8Y8
[27] = target: GRIP2_5, Q9C0E4
[28] = target: Inadl_1, Q8NI35
[29] = target: HTRA2, O43464
[30] = target: MAGI2_4, Q86UL8
[31] = target: MAST2, Q6P0Q8
[32] = target: MAGI2_5, Q86UL8
[33] = target: T6, ARHGAP21, Q5T5U3

GRIP2_5, Q9C0E4, sequence (Q9C0E4 544-642): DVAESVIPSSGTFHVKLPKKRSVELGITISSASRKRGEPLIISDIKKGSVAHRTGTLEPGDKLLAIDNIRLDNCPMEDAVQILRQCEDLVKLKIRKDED
MAST2, Q6P0Q8, sequence (Q6P0Q8 1099-1202): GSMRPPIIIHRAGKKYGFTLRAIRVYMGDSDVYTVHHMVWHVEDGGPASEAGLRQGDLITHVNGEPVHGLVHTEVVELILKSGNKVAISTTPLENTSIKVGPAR
GRASP, Q7Z6J2, sequence (Q7Z6J2 96-193): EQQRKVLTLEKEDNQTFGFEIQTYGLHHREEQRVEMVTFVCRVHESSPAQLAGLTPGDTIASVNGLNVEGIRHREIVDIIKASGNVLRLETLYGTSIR
PDLIM1, O00151, sequence (O00151 1-87): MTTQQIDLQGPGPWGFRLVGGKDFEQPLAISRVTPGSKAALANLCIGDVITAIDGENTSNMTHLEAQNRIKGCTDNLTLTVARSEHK
Inadl_10, Q8NI35, sequence (Q8NI35 1673-1763): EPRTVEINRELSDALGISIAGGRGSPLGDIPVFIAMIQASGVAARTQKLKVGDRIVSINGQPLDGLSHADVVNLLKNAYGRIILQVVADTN
IL16_1, Q14005, sequence (Q14005 210-306): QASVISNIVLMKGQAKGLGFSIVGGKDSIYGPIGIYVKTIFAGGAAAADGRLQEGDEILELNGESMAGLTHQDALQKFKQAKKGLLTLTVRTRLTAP
GRID2IP_2, A4D2P6, sequence (A4D2P6 272-370): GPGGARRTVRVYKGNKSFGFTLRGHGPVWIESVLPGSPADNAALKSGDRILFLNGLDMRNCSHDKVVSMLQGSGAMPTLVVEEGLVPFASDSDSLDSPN
DLG4_2, P78352, sequence (P78352 155-259): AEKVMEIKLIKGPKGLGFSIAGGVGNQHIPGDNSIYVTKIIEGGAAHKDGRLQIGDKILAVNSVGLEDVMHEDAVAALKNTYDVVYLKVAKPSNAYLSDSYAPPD
Inadl_1, Q8NI35, sequence (Q8NI35 113-229): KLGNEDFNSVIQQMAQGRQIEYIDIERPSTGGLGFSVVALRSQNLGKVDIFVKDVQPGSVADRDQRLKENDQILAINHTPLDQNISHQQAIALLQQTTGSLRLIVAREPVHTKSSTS
MAST1, Q9Y2H9, sequence (Q9Y2H9 962-1065): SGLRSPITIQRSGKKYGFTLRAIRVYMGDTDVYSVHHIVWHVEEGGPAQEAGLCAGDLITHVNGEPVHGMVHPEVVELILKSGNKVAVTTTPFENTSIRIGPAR
DLG4_1, P78352, sequence (P78352 62-152): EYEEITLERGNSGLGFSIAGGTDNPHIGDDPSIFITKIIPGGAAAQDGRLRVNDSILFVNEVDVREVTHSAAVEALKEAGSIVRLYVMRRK
MAGI3_2, Q5TCQ9, sequence (Q5TCQ9 398-503): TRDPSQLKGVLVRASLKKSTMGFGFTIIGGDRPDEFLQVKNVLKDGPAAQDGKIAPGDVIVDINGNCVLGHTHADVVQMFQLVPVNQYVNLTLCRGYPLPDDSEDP
HTRA1, Q92743, sequence (Q92743 360-477): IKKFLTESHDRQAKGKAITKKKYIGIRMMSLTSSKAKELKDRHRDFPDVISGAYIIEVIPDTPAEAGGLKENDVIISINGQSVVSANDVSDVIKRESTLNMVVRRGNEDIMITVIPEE
Inadl_6, Q8NI35, sequence (Q8NI35 1058-1167): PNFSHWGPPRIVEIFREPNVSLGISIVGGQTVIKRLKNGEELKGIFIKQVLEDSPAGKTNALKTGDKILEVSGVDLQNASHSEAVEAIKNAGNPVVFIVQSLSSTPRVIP
DLG4_3, P78352, sequence (P78352 306-403): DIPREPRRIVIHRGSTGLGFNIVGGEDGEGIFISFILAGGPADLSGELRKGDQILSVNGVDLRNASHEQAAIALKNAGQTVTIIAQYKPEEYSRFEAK
MAGI2_4, Q86UL8, sequence (Q86UL8 772-865): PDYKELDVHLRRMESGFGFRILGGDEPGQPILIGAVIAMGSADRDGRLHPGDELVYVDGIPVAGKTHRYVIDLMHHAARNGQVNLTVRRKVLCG
DLG1_2, Q12959, sequence (Q12959 314-412): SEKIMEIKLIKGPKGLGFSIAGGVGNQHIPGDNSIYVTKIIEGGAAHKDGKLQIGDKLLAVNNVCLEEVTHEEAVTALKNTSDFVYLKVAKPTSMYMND
HTRA2, O43464, sequence (O43464 355-458): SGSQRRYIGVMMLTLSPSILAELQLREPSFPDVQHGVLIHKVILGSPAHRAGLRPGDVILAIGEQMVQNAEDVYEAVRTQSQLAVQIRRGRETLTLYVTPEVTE
LNX1_2, Q8TBB1, sequence (Q8TBB1 371-470): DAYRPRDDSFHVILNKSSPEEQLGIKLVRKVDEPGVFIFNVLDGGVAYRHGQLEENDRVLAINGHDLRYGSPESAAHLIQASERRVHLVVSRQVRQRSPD
FRMPD4, Q14CM0, sequence (Q14CM0 67-160): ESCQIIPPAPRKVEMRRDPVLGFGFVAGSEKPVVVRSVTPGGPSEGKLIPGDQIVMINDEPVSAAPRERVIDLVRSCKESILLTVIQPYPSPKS
LAP2, Q96RT1, sequence (Q96RT1 other isoform, or with tags, fused parts or gaps): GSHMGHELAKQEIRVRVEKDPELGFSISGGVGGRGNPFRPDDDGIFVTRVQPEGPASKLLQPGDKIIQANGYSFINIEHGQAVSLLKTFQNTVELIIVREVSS
LNX1_3, Q8TBB1, sequence (Q8TBB1 500-596): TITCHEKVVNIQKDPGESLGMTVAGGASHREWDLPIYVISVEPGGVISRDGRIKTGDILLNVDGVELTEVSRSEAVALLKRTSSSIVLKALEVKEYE
MAGI2_5, Q86UL8, sequence (Q86UL8 915-1017): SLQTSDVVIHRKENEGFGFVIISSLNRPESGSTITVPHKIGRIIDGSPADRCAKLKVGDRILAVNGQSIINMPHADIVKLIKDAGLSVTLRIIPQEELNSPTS
IL16_4, Q14005, sequence (Q14005 1229-1329): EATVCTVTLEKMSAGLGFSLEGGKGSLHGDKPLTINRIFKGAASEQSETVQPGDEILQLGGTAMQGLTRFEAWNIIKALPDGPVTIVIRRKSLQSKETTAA
GIPC2, Q8TF65, sequence (Q8TF65 112-203): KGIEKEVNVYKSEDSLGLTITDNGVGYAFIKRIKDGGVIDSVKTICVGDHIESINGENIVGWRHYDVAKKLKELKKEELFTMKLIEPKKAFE

Binder	pKd [1]	pKd [2]	pKd [3]	pKd [4]	pKd [5]	pKd [6]	pKd [7]	pKd [8]	pKd [9]	pKd [10]	pKd [11]	pKd [12]	pKd [13]	pKd [14]	pKd [15]	pKd [16]	pKd [17]	pKd [18]	pKd [19]	pKd [20]	other results
SPDRDRESIV [SCN5A, Q14524]	below the threshold	below the threshold	4.12	below the threshold	below the threshold	below the threshold	below the threshold	4.51	4.86	below the threshold	below the threshold	below the threshold	below the threshold	3.83	below the threshold	4.73	4.06	3.63	5.4	4.46	pKd [21]: 5.66; pKd [22]: 4.9; pKd [23]: below the threshold; pKd [24]: 5.08; pKd [25]: below the threshold; pKd [26]: 3.88; pKd [27]: below the threshold; pKd [28]: below the threshold; pKd [29]: below the threshold; pKd [30]: 3.63; pKd [31]: 4.53; pKd [32]: 4.12; pKd [33]: 3.91
PPGKHLVTEV [KCNA7, Q96RP8]	below the threshold	3.71	4.52	3.7	4.16	4.6	below the threshold	4.84	5.1	3.53	below the threshold	below the threshold	4.71	4.58	4.39	5.11	below the threshold	4.37	4.62	4.64	pKd [21]: 4.32; pKd [22]: 4.71; pKd [23]: below the threshold; pKd [24]: 3.5; pKd [25]: 3.56; pKd [26]: 4.39; pKd [27]: below the threshold; pKd [28]: below the threshold; pKd [29]: below the threshold; pKd [30]: 4.48; pKd [31]: 5.21; pKd [32]: 4.73; pKd [33]: below the threshold
